Data from patent US20140308287A1 (SEA LANE BIOTECHNOLOGIES, published 2014).
Changes are numbered by the printed parent chain. Values belong to the binder of their own block, whether it stands above or below them.

What was measured:
[1] = target: T1, human ErbB3-Fc (R&D Systems) (human, UniProt P21860 20-643); assay: ELISA on ErbB3-Fc (Example 42); format of the parent not stated, the variants were soluble monovalent Sabs
T1 construct: Bought protein; also called wild-type ErbB3-Fc fusion; immobilized ErbB3; not shown: Fc part of the bought fusion protein; not described

[2] = target: T1, human ErbB3-Fc (R&D Systems); assay: ELISA on ErbB3-Fc, soluble monovalent Sab (Example 42)
[3] = target: T1, human ErbB3-Fc (R&D Systems); assay: ELISA on ErbB3-Fc (Example 42); format of the parent not stated, the variants were soluble monovalent Sabs; remark: listed apart in the source
[4] = target: T1, human ErbB3-Fc (R&D Systems); assay: ELISA, SgG on plate-coated human ErbB3-Fc
Method: (§1) Binding was detected using a biotinylated antibody that specifically recognizes VpreB, followed by streptavidin HRP. Detection used a colorimetric HRP substrate. Data was analyzed via using GraphPad Prism.

[5] = target: T1, human ErbB3-Fc (R&D Systems); assay: ELISA, inhibition of binding of NRG1-beta 1 ECD (0.26 ug/ml) to plate-coated human ErbB3-Fc
Method: ELISA plates were coated with human ErbB3-Fc. Various concentrations of the indicated anti-ErbB3 SBPs were then allowed to bind to the coated wells. […] Detection used a colorimetric HRP substrate.
Data was analyzed using GraphPad Prism.

EGFR-Fc (ErbB1) = target: T2, EGFR-Fc (ErbB1) (human, UniProt P00533 25-645); assay: ELISA on plate-coated EGFR-Fc (ErbB1), detection biotinylated anti-VpreB (Example 52)
T2 construct: The sentence reads 'human ErbB3-Fc, EGFR-Fc (ErbB1) or ErbB2-Fc'; 'human' is read as applying to all three; not shown: Fc part; not described
Excerpt: (§2) ELISA plates were coated with human ErbB3-Fc, EGFR-Fc (ErbB1) or ErbB2-Fc. Various concentrations of the indicated anti-ErbB3 SBPs were then allowed to bind to the coated wells. Binding was detected using a biotinylated antibody that specifically recognizes VpreB, followed by streptavidin HRP. Detection used a colorimetric HRP substrate.

[6] = target: T1, human ErbB3-Fc (R&D Systems); assay: ELISA on plate-coated human ErbB3-Fc without NRG, detection biotinylated anti-VpreB and streptavidin HRP (Example 43); axis labelled log [Sab] nM, text speaks of SgGs
Excerpt: (§3) The resulting bound SgGs were detected using a biotinylated anti-VpreB, followed by streptavidin HRP colorimetric detection.

ErbB2-Fc = target: T3, ErbB2-Fc (human, UniProt P04626 23-652); assay: ELISA on plate-coated ErbB2-Fc, detection biotinylated anti-VpreB (Example 52)
T3 construct: The sentence reads 'human ErbB3-Fc, EGFR-Fc (ErbB1) or ErbB2-Fc'; 'human' is read as applying to all three; not shown: Fc part; not described
Excerpt: as §2

[7] = target: T1, human ErbB3-Fc (R&D Systems); assay: ELISA on plate-coated human ErbB3-Fc, detection biotinylated anti-VpreB and streptavidin HRP (Example 52)
Excerpt: as §2

[8] = target: T4, human ErbB3 expressed on the surface of cells (BxPC-3 and other human tumor cell lines) (human, UniProt P21860 20-1342); assay: flow cytometry on BxPC-3 cells, geometric mean fluorescence intensity
T4 construct: SKBR3, PathHunter reporter cells in functional assays; The leader 1-19 is not part of the mature protein; also called cell surface ErbB3; cell surface receptor
Method: (§4) Briefly, BxPC-3 cells were first dissociated using 0.25% trypsin, 0.2% EDTA, washed in cold PBS, 1% BSA, and then resuspended at 3×10⁶ cells/ml. SgGs (described above) were added at the indicated concentrations in Staining Buffer (Becton Dickinson) and incubated at 4 degrees C. for 1 hour. Next the cells were washed in stain buffer and resuspended with 1:133 diluted biotinylated goat anti-human IgG (Southern Biotech #2040-08) and incubated at 4 degrees C. for 1 hour. Cells were then washed in stain buffer and resuspended with Alexa488 conjugated streptavidin (Invitrogen #S11223) and incubated at 4 degrees C. for 1 hour. One microliter of the vital stain 7AAD (Invitrogen #A1310) was added during the last 15 minutes of incubation. Cells were washed with stain buffer and analyzed on a flow cytometer.
(§5) Thereafter only signals arising from this gated population were analyzed. Geometric mean fluorescence intensity for cells stained using the indicated concentrations of SBPs were determined using FLOWJO analysis software and EC50s were calculated using Graphpad Prism.

[9] = target: T1, human ErbB3-Fc (R&D Systems); assay: ELISA on plate-coated human ErbB3-Fc with 1.85 nM NRG1-beta 1 extracellular domain added before the SBP (+ NRG), detection biotinylated anti-VpreB (Example 43); axis labelled log [Sab] nM
Excerpt: as §3

[10] = target: T1, human ErbB3-Fc (R&D Systems); assay: ELISA, SgG on plate-coated human ErbB3-Fc, anti-VpreB detection
Method: as §1

[11] = target: T4, human ErbB3 expressed on the surface of …; assay: flow cytometry on BxPC-3 cells
Method: as §4, §5

[12] = target: T5, murine ErbB3-Fc (R&D Systems) (mouse, UniProt Q61526 20-641); assay: ELISA, SgG on plate-coated murine ErbB3-Fc, anti-VpreB detection
T5 construct: Bought protein; also called mouse ErbB3; not shown: Fc part of the bought fusion protein; not described
T5 sequence (Q61526 20-641 limits assumed): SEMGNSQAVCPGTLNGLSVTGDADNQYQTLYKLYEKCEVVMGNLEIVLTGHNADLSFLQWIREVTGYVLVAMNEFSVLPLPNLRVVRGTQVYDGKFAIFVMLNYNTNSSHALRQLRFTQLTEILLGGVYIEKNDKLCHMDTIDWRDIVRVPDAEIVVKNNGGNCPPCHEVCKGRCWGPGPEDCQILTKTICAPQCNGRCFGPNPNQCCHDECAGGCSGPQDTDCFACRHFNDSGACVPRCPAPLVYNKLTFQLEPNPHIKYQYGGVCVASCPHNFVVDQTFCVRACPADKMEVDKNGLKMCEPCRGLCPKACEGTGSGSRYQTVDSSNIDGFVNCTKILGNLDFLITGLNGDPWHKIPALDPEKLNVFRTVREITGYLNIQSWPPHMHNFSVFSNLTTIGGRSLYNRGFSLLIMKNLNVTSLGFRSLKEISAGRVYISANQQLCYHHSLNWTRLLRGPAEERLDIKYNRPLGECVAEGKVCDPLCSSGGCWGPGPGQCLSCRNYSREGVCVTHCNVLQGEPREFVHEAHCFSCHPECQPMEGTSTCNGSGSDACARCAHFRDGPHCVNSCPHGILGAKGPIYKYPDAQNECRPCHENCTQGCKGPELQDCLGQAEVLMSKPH
Method: (§6) Binding was detected using a biotinylated antibody that recognizes VpreB, followed by strepatvidin HRP. Detection used a colorimetric HRP substrate. Data was analyzed via using GraphPad Prism.

[13] = target: T5, murine ErbB3-Fc (R&D Systems); assay: ELISA, SgG on plate-coated murine ErbB3-Fc
Method: as §6

B1: 2817-C01 (Parent) (other)
VH: EVQLLESGGGLVQPGGSLRLSCAASGFTFSTYAMNWVRQAPGKGLEWVALISSGGSYKYYADSVKGRFTISRDNSKNTLYLQMNSLRAEDTAVYYCAKDNFILLNSWFDYWGQGTLVTVSS
surrogate light: QPVLHQPPAMSSALGTTIRLTCTLRNDHDIGVYSVYWYQQRPGHPPRFLLRYFSQSDKSQGPQVPPRFSGSKDVARNRGYLSISELQPEDEAMYYCAMGARSSVTHVFGSGTQLTVLSQPKATPSVTLFPPSSEELQANKATLVCLMNDFYPGILTVTWKADGTPITQGVEMTTPSKQSNNKYAASSYLSLTPEQWRSRRSYSCQVMHEGSTVEKTVAPAECS
- EC50 [1]: 0.055 nM

B2: 3000-E07 (other)
VH: EVQLLESGGGLVQPGGSLRLSCAASGFTFSNYWMHWVRQAPGKGLEWVALISGGGGNIYYADSVKGRFTISRDNSKNTLYLQMNSLRAEDTAVYYCAKDNEKNLYTWLDYWGQGTLVTVSS
light: B1 surrogate light
notes: copies: 1 + 1
- EC50 [2]: 0.121 nM

B3: 2716-F05 (Parent) (other)
VH: B2 VH with I58T
light: B1 surrogate light
- EC50 [3]: 0.22 nM

B6: 3000-B03 (other)
VH: B2 VH with G53N, G54N, G56T, N57Y, I58T
light: B1 surrogate light
notes: copies: 1 + 1
- EC50 [2]: 0.179 nM

B8: 3000-C08 (other)
VH: B2 VH with N31S, L50V, G53N, G54N, G56R, N57Y, I58K
surrogate light: B1 surrogate light
notes: copies: 1 + 1
- EC50 [2]: 0.182 nM

B9: 3000-F09 (other)
VH: B2 VH with N31S, G53S, G54S, N57I, I58T
surrogate light: B1 surrogate light
- EC50 [2]: 0.118 nM

B12: 3000-D07 (other)
VH: B2 VH with N31S, A49S, G53A, G54S, G56S, N57I, I58K
light: B1 surrogate light
notes: copies: 1 + 1
- EC50 [2]: 0.152 nM

B15: 3000-A07 (other)
VH: B2 VH with N31D, L50V, G56A, N57Y, I58K
surrogate light: B1 surrogate light
- EC50 [2]: 0.087 nM

B16: 3000-C03 (other)
VH: B2 VH with N31S, G53N, G54N, G56T, N57Y, I58K
light: B1 surrogate light
notes: copies: 1 + 1
- EC50 [2]: 0.164 nM

B18: 3000-E04 (other)
VH: B2 VH with N31D, L50V, G53W, G56A, N57Y, I58K
surrogate light: B1 surrogate light
- EC50 [2]: 0.109 nM

B19: 3000-A11 (other)
VH: B2 VH with N31S, G53W, N57T, I58K
light: B1 surrogate light
notes: copies: 1 + 1
- EC50 [2]: 0.139 nM

B20: 3000-G09 (other)
VH: B2 VH with N31S, G53N, N57Y, I58K
light: B1 surrogate light
notes: copies: 1 + 1
- EC50 [2]: 0.158 nM

B21: 3000-C07 (other)
VH: B2 VH with N31S, H35S, G53N, G56S, N57I, I58K
surrogate light: B1 surrogate light
- EC50 [2]: 0.102 nM

B22: 3000-A04 (other)
VH: B2 VH with N31S, G53A, G56T, N57S, I58K
light: B1 surrogate light
notes: copies: 1 + 1
- EC50 [2]: 0.127 nM

The remaining lines, values ahead:

- EC50 [2]: 0.109 nM
B4: 3000-H03 (other)
VH: B2 VH with N31D, A49S, G53N, N57Y, I58T
surrogate light: B1 surrogate light

- EC50 [4]: 0.041 nM
- IC50 [5]: 0.99 nM
- binding result (EGFR-Fc (ErbB1)): no binding (tested: 1000 nM)
- EC50 (read off the curve) [6]: ~0.2 nM
- binding result (ErbB2-Fc): no binding (tested: 1000 nM)
- EC50 (read off the curve) [7]: ~0.05 nM
- EC50 [8]: 0.12 nM
- EC50 (read off the curve) [9]: ~0.3 nM
- EC50 [10]: 0.04 nM
- EC50 [11]: 0.138 nM
B5: 2817-C01 surroglobulin (SgG) (other)
VH: B1 VH
light: B1 surrogate light
notes: also called anti-ErbB3 SgG

- EC50 [2]: 0.084 nM
B7: 3000-B06 (other)
VH: B2 VH with N31S, G53N, G54N, G56A, N57Y
light: B1 surrogate light

- EC50 [2]: 0.105 nM
B10: 3000-E01 (other)
VH: B2 VH with N31S, G53N, G54N, G56A, N57Y, I58T
surrogate light: B1 surrogate light

- EC50 [4]: 0.049 nM
- IC50 [5]: 0.52 nM
- binding result (EGFR-Fc (ErbB1)): no binding (tested: 1000 nM)
- EC50 [12]: 0.06 nM
- EC50 (read off the curve) [6]: ~0.5 nM
- binding result (ErbB2-Fc): no binding (tested: 1000 nM)
- EC50 (read off the curve) [7]: ~0.08 nM
- EC50 [13]: 0.095 nM
- EC50 [8]: 0.04 nM
- EC50 (read off the curve) [9]: ~0.7 nM
- EC50 [10]: 0.05 nM
- EC50 [11]: 0.04 nM
B11: 2716-F05 surroglobulin (SgG) (other)
VH: B2 VH with I58T
light: B1 surrogate light
notes: also called anti-ErbB3 SgG

- EC50 [2]: 0.115 nM
B13: 3000-B02 (other)
VH: B2 VH with N31S, L50V, G53S, G56N, N57Y
surrogate light: B1 surrogate light

- EC50 [2]: 0.072 nM
B14: 3000-A08 (other)
VH: B2 VH with N31S, H35N, G53N, N57I, I58K
light: B1 surrogate light

- EC50 [2]: 0.082 nM
B17: 3000-A05 (other)
VH: B2 VH with N31D, G53A, G56T, N57Y, I58K
light: B1 surrogate light

- EC50 [2]: 0.07 nM
B23: 3000-B09 (other)
VH: B2 VH with N31D, G53S, N57Y, I58K
light: B1 surrogate light
